These results are taken from patent publication US20210054072A1 (ALLAKOS, published 2021).

Assay [1] concerns the target T1, Siglec-7-ECD (human, UniProt Q9Y286 19-353).
T1 construct: also called p75; AIRM
The experiment in a line: bio-layer interferometry (ForteBio), 25 C, antibody captured on the sensor, Siglec-7-ECD as analyte 50 to 1.56 nM, 1:1 global fit. The method, then:
Antibody binding analysis was carried out by bio-layer interferometry (ForteBio). […] Antibodies were captured on anti-mouse kinetic sensors at 0.5 ug/mL; Siglec-7-ECD was used as analyte and diluted in assay buffer from 50 nM to 1.56 nM with 2× dilutions. Two-minute associations were conducted, followed by 10-minute dissociations. Results were determined relative to a control empty reference AHC sensor, and analyzed using ForteBio analysis software with 1:1 global fit parameters.

Another assay addresses T2, Siglec-7-ECD-Fc (human, UniProt Q9Y286 19-353).
T2 construct: also called recombinant Siglec-7-Fc; Siglec-7-ECD-huFc; not shown: human Fc (huFc)
The experiment in a line: ligand blocking assay, flow cytometry: antibody (40 nM to 40 pM) mixed with 10 nM Siglec-7-ECD-Fc; blocked: binding of Siglec-7-ECD-Fc to its ligands on A375 melanoma cells. The procedure:
Recombinant Siglec-7-Fc was added to A375 cells in the presence of anti-Siglec-7 antibodies at increasing concentrations and binding of the complex was detected on the cell surface.
Human melanoma cell line A375, which expresses high level of ligands for Siglec-7, was used to determine the blocking activity of anti-Siglec-7 antibodies in a cell based assay. Two-fold serial dilutions of anti-Siglec-7 antibodies (40 nM to 40 pM) were combined with 10 nM Siglec-7-ECD-Fc in FACS buffer (PBS/2% BSA) and incubated on ice for 30 minutes. 2.5×10e4 A375 cells per well were added to round bottom 96-well tissue culture plates in FACS buffer, plates were centrifuged at 400 g for 2 min, supernatant was removed and cells were re-suspended in 100 ul of the antibody-Siglec-7 complexes. After a 1 hour incubation on ice, cells were washed twice and incubated for 30 minutes with goat anti-human F(ab′)2 fragment conjugated to AF647 (Jackson IR labs) at 1 ug/ml in FACS buffer. After two more washes, cells were fixed in PBS/2% PFA and acquired on a Novocyte flow cytometer (ACEA biosciences). IC₅₀ values for blocking were determined based on plotting mean fluorescence in the APC channel and analysis using Prism Graphpad software.

The target in assay [2] is T1, Siglec-7-ECD. Put plainly: bio-layer interferometry (ForteBio), 25 C, antibody captured on the sensor, Siglec-7-ECD as analyte 50 to 1.56 nM, 1:1 global fit; the same value stands beside the sensorgrams ('QA79 KD=706pM', four traces up to about 0.16 nm, visible dissociation to 780 s).
The target in assay [3] is Siglec-7 on primary human NK cells (human, UniProt Q9Y286 19-467). Put plainly: cell-based or functional assay.
Chain of Siglec-7 on primary human NK cells (Q9Y286 19-467 limits assumed): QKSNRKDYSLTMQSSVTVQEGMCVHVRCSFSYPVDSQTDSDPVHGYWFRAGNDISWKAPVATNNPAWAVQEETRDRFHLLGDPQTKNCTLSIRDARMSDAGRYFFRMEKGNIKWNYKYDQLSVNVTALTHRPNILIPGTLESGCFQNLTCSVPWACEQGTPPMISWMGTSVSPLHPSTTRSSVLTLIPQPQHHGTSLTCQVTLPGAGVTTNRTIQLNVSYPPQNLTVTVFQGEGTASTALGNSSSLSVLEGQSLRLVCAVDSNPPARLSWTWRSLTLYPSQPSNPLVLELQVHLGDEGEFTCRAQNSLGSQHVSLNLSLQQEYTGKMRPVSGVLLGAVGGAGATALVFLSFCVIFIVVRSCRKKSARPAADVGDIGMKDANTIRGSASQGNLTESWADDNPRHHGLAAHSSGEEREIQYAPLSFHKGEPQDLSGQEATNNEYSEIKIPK

T1 sequence (Q9Y286 19-353 limits assumed): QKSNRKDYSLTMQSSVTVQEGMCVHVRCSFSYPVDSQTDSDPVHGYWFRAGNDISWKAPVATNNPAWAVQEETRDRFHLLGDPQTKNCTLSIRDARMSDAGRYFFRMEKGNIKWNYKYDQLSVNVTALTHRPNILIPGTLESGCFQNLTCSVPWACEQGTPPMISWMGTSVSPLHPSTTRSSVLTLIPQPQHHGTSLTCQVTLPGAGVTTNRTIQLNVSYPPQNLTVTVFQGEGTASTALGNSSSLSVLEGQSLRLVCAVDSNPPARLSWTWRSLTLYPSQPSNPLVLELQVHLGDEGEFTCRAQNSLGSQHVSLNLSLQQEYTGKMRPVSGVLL
T2 sequence (Q9Y286 19-353): as the sequence (Q9Y286 19-353 limits assumed) above

Turning to anti-Siglec-7 antibody Z176, the Kd in the assay with Siglec-7-ECD [1] came to 0.086 nM.

In the assay with Siglec-7-ECD [1], anti-Siglec-7 antibody S7.7 had a Kd of 0.422 nM. In the assay with Siglec-7-ECD-Fc, this molecule showed an IC50 of 4.26 nM.

On to anti-Siglec-7 antibody QA79, for which, in the assay with Siglec-7-ECD-Fc, the concentration for half-maximal inhibition (IC50) amounted to 7.49 nM. Also, the Kd in the assay with Siglec-7-ECD [2] was determined as 0.706 nM.

B1: 5215-2 (antibody, V domains shown)
VH: DVQLQESGPGLVKPSQSLSLTCTVTGYSITSDYVWTWIRQFPGNKLEWMGYITYSDSTNYNPSLKSRLSITRDTSKNQFFLQLSSVTTEDTATYFCARSLTGNYFDYWGQGTTLTVSS
VL: VIVLTQSPASLEVSLGQRATISCRASQTVRISSYSYMNWYQQKPGQPPKLLIKYASNLESGVPARFSGSGSGTDFTLNIHPVEEEDTATYYCQHSWKIPTFGGGTKLEIK
notes: anti-Siglec-7 monoclonal antibody of the panel
B1 showed a Kd with Siglec-7-ECD [1] of 0.149 nM. In addition, the IC50 with Siglec-7-ECD-Fc turned out to be 4.12 nM.

B2: 5215-13 (antibody, V domains shown)
VH: EVQLQQSGAELVKPGASVKLSCTVSGFNFKDTYIHWVKQRPEQGLEWIGRIDPANGNTKYASKFQDKATITADTSSNTVYMQLSSLTSEDTAVYYCTRGWDGYYFDCWGQGTTLTVSS
VL: DIVLTQSPASLVVSLGLRATISCRASQSVSTSSHSYLHWYQQKPGQPPKLLIKYASNLASGVPARFSGSGSGADFTLNIHPVEEEDTATYYCQHSWEIPYTFGGGTKLEIK
notes: as for B1
Turning to B2, in the assay with Siglec-7-ECD [1], the affinity, expressed as Kd, was 0.99 nM. Besides, the IC50 with Siglec-7-ECD-Fc turned out to be 1.32 nM.

B3: monoclonal antibody 16H11 (antibody, V domains shown)
VH: QVQLHQSGAELVKPGASVKISCKGSGYDFSNFWMNWVKQRPGKGLEWIGQIYPGDGEIKYNGKFKGKATLTADESSSTAYIHLSSLTSEDSAVYFCARDDYLRAMDYWGQGTSVTVSS
VL: DIQMTQSPASLSASVGETVTITCRASGNIHNYLAWFQQKQGKSPHFLVYSAKALADGVPSRFSGSGSGTQYSLKINSLQPEDFGTYYCQHFWSSPYTFGGGTKLEIK
As to B3, the “IC50 (read off the curve), internalization of Siglec-7” value (from here on “IC50 (read off the curve)”) in assay [3] is about 0.01 nM.

B4: 5215-9 (antibody, V domains shown)
VH: EVQLQQSGAELVKSGASVKLSCTASGFNIKDTYMHWVKQRPEKGLEWIGWIDPADGHTKYDPKFQGKATITADTSSNTAYLHLSSLTSEDAAVYYCPRGGSSPYFDYWGQGTTLTVSS
VL: DIVLTQSPASLTISLGQRATISCRASQSVSTSTYSYIHWYQQKPGQPPKLLIKYASNLASGVPARFSGSGSGTDFSLSIHPMEEEDTATYYCQHSWKIPFTFGSGTKLEIK
notes: as for B1
Molecule B4 registered a Kd with Siglec-7-ECD [1] of 0.001 nM. Moreover, the IC50 in the assay with Siglec-7-ECD-Fc stood at 5.33 nM.

B5: monoclonal antibody 8A2 (antibody, V domains shown)
VH: QVQLKESGPGLVAPSQSLSITCTVSGFSLTTYGVDWVRQFPGKGLEWLGVIWGGGNTNYNSALMSRLSISKDTSKSQVFLKMNSLQTDDTAMYYCAKHKGTSHAMEYWGQGTSVTVSS
VL: QIVLTQSPAIMSASPGEKVTMTCSASSRVIFMYWYQQKPGSSPRLLIYDTSNLASGVPVRFSGGGSGTSYSLTISRMEAEDAATYYCQQWSSYPPTFGAGTKLELK
On to B5, for which, in assay [3], the “IC50 (read off the curve)” value was about 0.01 nM.

B6: monoclonal antibody 3F1 (antibody, V domains shown)
VH: EFQLQQSGPEMVKPGASVKMSCKASGDSFTDYKINWVKQNNGKSLEWIGVINPDSGTTSYNQIFEGKATLTVDQSSSTAYMQVNRLTSEDSAVYYCTTWDDYSFYAMDYWGQGTSVTVSS
VL: DVLMTQTPLSLPVSLGDQASISCRSSQNIVHSNGNTYLEWFLQKPGQSPKLLIYKVSNRFSGVPDRFSGSGSGTDFTLKISRVEAEDLGVYYCFQGSHIPWTFGGGTKLEIK
With B6, the “IC50 (read off the curve)” value in assay [3] was about 0.01 nM.
